± gives the standard deviation.
Assay: protein stability index of a GFP-peptide fusion (GPS, HEK-293T) (PSI 1-6); higher = more stable
[1] = treatment: DMSO, c terminus: a fixed tail appended
[2] = treatment: MLN4924 1 uM, 8 h, c terminus: a fixed tail appended
[3] = treatment: DMSO, c terminus: native
[4] = treatment: MLN4924 1 uM, 8 h, c terminus: native
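Note: 24-mer peptide tiles fused after GFP, lentivirally expressed, FACS-sorted into six equal bins by GFP/DsRed ratio, decoded by Illumina sequencing, PSI is the read-weighted mean bin number.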

Row | Sequence | protein stability index [1] | protein stability index [2] | protein stability index [3] | protein stability index [4]
1 | ELEPLKGNFDWEAIFDAGTLGGEL [FOXJ1] | 4.2 ± 0.39 | 4.05 ± 0.46 | – | –
2 | DGSKSEDELDQASTPTDVRDIDL [CCND2] | – | – | 4.41 ± 0.26 | 4.71 ± 0.33
3 | PAATWNLEEKRLTWRLPDVSEAGG [FCHO1] | 4.49 ± 0.24 | 4.58 ± 0.25 | – | –
4 | PSPMPTHRSYLGPGSTSPLETSGN [SLC6A17] | 4.13 ± 0.29 | 4.47 ± 0.26 | – | –
5 | EAVFGKYGRIVEVLLMKDRETNKS [RBMX] | 2.53 ± 0.29 | 2.85 ± 0.52 | – | –
6 | RHRLRWHSFQSSHRPSLNSVSLQI [DLC1] | 2.41 ± 0.1 | 2.58 ± 0.097 | – | –
7 | LGYAASLEASVQDDAGTSGGPSSP [C2CD2L] | 5.45 ± 0.34 | 5.53 ± 0.22 | – | –
8 | MGYMLFNERMLESYLHAKKYLKPS [CARM1] | 2.35 ± 0.17 | 2.08 ± 0.32 | – | –
9 | TKEEGLALAREFSCPFFETSAAYR [RIT1] | 3.15 ± 0.29 | 3.13 ± 0.15 | – | –
10 | RQLTKPRPVILDPADPTGNLGGGD [OAS1] | 4.65 ± 0.23 | 4.48 ± 0.31 | – | –
11 | LIGDTLLVAPVLEPGKQERDVYLP [MYORG] | 3.23 ± 0.12 | 3.03 ± 0.22 | – | –
12 | IPAVSISYVVYENLKITLGVQSR [SLC25A25] | – | – | 3.19 ± 0.32 | 3.18 ± 0.36
13 | EQLLVLVEWAKYIPAFCELPLDDQ [HNF4A] | 2.57 ± 0.78 | 2.46 ± 0.42 | – | –
14 | RSKIYLRFLDYEMQNSNECKRNFV [NETO1] | 2.1 ± 0.2 | 2.28 ± 0.091 | – | –
15 | ADMLKQYFRDLPEPLMTNKLSETF [DLC1] | 2.71 ± 0.26 | 2.86 ± 0.22 | – | –
16 | MIRKGGDQTSLLVVDKETDNMYRL [PDZK1] | – | 3.17 ± 0.25 | – | –
17 | VAGNPQDTRLRYSFFVPRPTPSTP [ADAMTS4] | 3.11 ± 0.36 | 3.18 ± 0.25 | – | –
18 | VAKLESECLKRQGQREPGSLSRNN [FBXO34] | 4.77 ± 0.098 | 4.75 ± 0.35 | – | –
19 | ELTLSKTDLEMQIESLNEELAYMK [KRT13] | 3.66 ± 0.15 | 3.66 ± 0.35 | – | –
20 | MTKAGSKGGNLRDKLDGNELDLSL [LRRC59] | 4.63 ± 0.15 | 4.63 ± 0.081 | – | –
21 | SSHKQGHTSSEYDMLREMFSDSRS [TAF7L] | 4.11 ± 0.21 | 4.13 ± 0.26 | – | –
22 | KIASLLGLLSKTAGFSPDCIMDDA [INTS4] | 2.57 ± 0.58 | 2.19 ± 0.55 | – | –
23 | WDIGRGKLYHQSKGPGAPQYPAGT [SPSB2] | 3.72 ± 0.095 | 3.53 ± 0.07 | – | –

Row | Sequence | protein stability index [1] | protein stability index [2] | protein stability index [3] | protein stability index [4]
24 | LQRVLQNCPWPMSCPGSSYRTVVR [EMID1] | 2.49 ± 0.27 | 2.74 ± 0.74 | – | –
25 | GYPVSSAFAFQNTFPHSISAKNTS [SASS6] | 3.19 ± 0.43 | 3.37 ± 0.21 | – | –
26 | LSCTLVPRSGEQAEGSPGGPGDSQ [CDKN1A] | 5.03 ± 0.41 | 5.05 ± 0.13 | – | –
27 | AEGPNRLLYKDGFSTILHLLLGSP [LPCAT4] | 2.23 ± 0.98 | 2.08 ± 0.29 | – | –
28 | RGFCAFLGSWLVPFAYLTVLDLSK [POMT2] | 3.24 ± 0.7 | 3.16 ± 0.25 | – | –
29 | PKEEQQQALEQFAAAAAHSTPVRR [EPB41L3] | 5.37 ± 0.087 | 5.22 ± 0.33 | – | –
30 | PCPEDASTPRPPEASSSPPEGSQD [TLE6] | 5.52 ± 0.16 | 5.53 ± 0.17 | – | –
31 | NEFLEAFRLVEKSCPEGDASECPQ [PPEF2] | 5 ± 0.75 | 5.17 ± 0.32 | – | –
32 | DYWNLQKDYYPINESLASLPLRVS [CLPTM1] | 2.4 ± 0.2 | 2.52 ± 0.17 | – | –
33 | EVPTAAGALTPTPAPTTTTATREE [CLPTM1] | 5.42 ± 0.27 | 5.44 ± 0.39 | – | –
34 | GSDLGGPLPTDPMLGLALGGLVVS [TSPAN10] | 2.88 ± 0.2 | 2.66 ± 0.19 | – | –
35 | ESAFKLSTGTSRWPSAKSAGWTLA [SCNN1D] | 2.46 ± 0.21 | 3.03 ± 0.17 | – | –
36 | EEKSKQFLDLMETIDKQREEMAKS [LRRC45] | 5.28 ± 0.25 | 5.3 ± 0.16 | – | –
37 | LQNMGLLLDKLAKENQDIRLLQAQ [PBXIP1] | 2.82 ± 0.2 | 2.93 ± 0.35 | – | –
38 | QTPQVNINPFTPDSLLLHSSGQCR [WEE1] | 3.6 ± 0.24 | 3.86 ± 0.34 | – | –
39 | GILTFLAVLGRYVPGLLLSYLMLV [RETREG3] | 3.42 ± 0.28 | 2.95 ± 0.72 | – | –
40 | RNTKRDVTLEASRENSKPRAILKP [PPP2R2B] | 4.44 ± 0.47 | 4.79 ± 0.056 | – | –
41 | RRHPQGAWKELDRNYLNYGEEGAP [CHGB] | 4.05 ± 0.28 | 4.1 ± 0.34 | – | –
42 | KKAEQKKKEKIIEDKTFGLKNKKG [ZC3H15] | 4.8 ± 0.31 | 4.92 ± 0.1 | – | –
43 | VGIYATNSAEACQYVITHAKVNIL [ACSBG2] | 2.73 ± 0.69 | 2.38 ± 0.83 | – | –
44 | EHLEILQKEDVKPYQVNGVNPAYP [ETS1] | 4.1 ± 0.11 | 4.05 ± 0.28 | – | –
45 | QSYKDLCERHEKGVLHKHQRALHK [SNX8] | 3.95 ± 0.2 | 3.92 ± 0.37 | – | –
46 | RLQRKLVEPKHCFTSPDYQQQCHE [SDE2] | 3.67 ± 0.2 | 3.69 ± 0.2 | – | –

Row | Sequence | protein stability index [1] | protein stability index [2] | protein stability index [3] | protein stability index [4]
47 | GEHKDRIERQWGNLLGEGQHKCDE [ZSCAN9] | 4.88 ± 0.4 | 4.93 ± 0.14 | – | –
48 | IEREVNILREIRHPNIITLHDIFE [DAPK3] | 2.69 ± 0.17 | 2.71 ± 0.42 | – | –
49 | HSRKTVLIKTIETRNGEVVTESQK [PRPH] | 4.71 ± 0.27 | 4.8 ± 0.32 | – | –
50 | SHLSNGLDPVAETAIRQLTEPSGR [C2CD2L] | 4.34 ± 0.31 | 4.58 ± 0.3 | – | –
51 | MHDAFEPVPILEKLPLQIDCLAAW [VPS39] | 2.56 ± 0.34 | 2.56 ± 0.27 | – | –
52 | GSIGVWHYICPRLGGIGFSSCIVC [SLC6A17] | 2.58 ± 0.054 | 2.41 ± 1.2 | – | –
53 | YQPAPYFAAEARYPIYVIPEPPPV [TENT5D] | 2.02 ± 0.18 | 2.35 ± 0.55 | – | –
54 | GKVLGKGGFAKCYEMTDLTNNKVY [PLK2] | 2.73 ± 0.11 | 2.87 ± 0.34 | – | –
55 | DYSPYFKTIEDLRNKIIAATIENA [KRT16] | 2.33 ± 0.22 | 2.44 ± 0.42 | – | –
56 | SLLQKVSPVAHKHLSRQKIDPLLY [TBC1D10A] | 2.07 ± 0.19 | 2.24 ± 0.2 | – | –
57 | AVEAGQEECAKWLLLNNANPNLSN [RIPK4] | 3.82 ± 0.25 | 4.26 ± 0.47 | – | –
58 | QSSFNSLQRVPSYDSFDSEDYPAA [ETS1] | 4.92 ± 0.28 | 4.93 ± 0.21 | – | –
59 | ENTLLNSQMVSTDNSLSSQNYISQ [MIA2] | 4.05 ± 0.23 | 4.03 ± 0.17 | – | –
60 | RKRLAREMQLSEVQIKTWFQNRRM [VENTX] | 2.67 ± 0.24 | 2.73 ± 0.41 | – | –
61 | DPPSSSEECPAHLLEDPLCADVIL [RHOBTB2] | 4.89 ± 0.21 | 5.11 ± 0.23 | – | –
62 | ALLTGGGSENRNHRLLNMARNNND [RNF180] | 3.7 ± 0.41 | 3.76 ± 0.35 | – | –
63 | IDFSPYLEPLGAPQAPAPATATDT [CEBPB] | 4.42 ± 0.31 | 4.35 ± 0.37 | – | –
64 | YGFYLRAGSEQKGQIIKDIDSGSP [PDZK1] | 3.2 ± 0.17 | 3.17 ± 0.36 | – | –
65 | KSKGYGFVSFFNKWDAENAIQQMG [TIA1] | 2.11 ± 0.76 | 1.59 ± 0.3 | – | –
66 | PQKTYSVKVLAFTSIGDGPLSSDI [PTPRD] | 2.17 ± 0.29 | 1.89 ± 0.3 | – | –
67 | SLGALDLLGPATGCLLDDGLEGLF [SERTAD1] | 2.6 ± 0.24 | 2.57 ± 0.32 | – | –
68 | EDGKTCRRKDVCQAIDHGCEHICV [MATN2] | 3.82 ± 0.2 | 4.24 ± 0.28 | – | –
69 | IGLTKAGMEGDWSWVDDTPFNKVQ [CD207] | 2.97 ± 0.37 | 3.04 ± 0.46 | – | –

Row | Sequence | protein stability index [1] | protein stability index [2] | protein stability index [3] | protein stability index [4]
70 | NEKITMQNLNDRLASYLEKVRALE [KRT13] | 2.86 ± 0.4 | 3 ± 0.32 | – | –
71 | GGGDEDGSLGSRAEPAPRAREGGG [SMAD6] | 5.55 ± 0.17 | 5.51 ± 0.4 | – | –
72 | ALFAQVQRGALPAPDPELAAEMYQ [RSAD1] | 3.69 ± 0.087 | 3.78 ± 0.34 | – | –
73 | MNGHQNGLDSPPLYPSAPILGGSG [ESRRG] | 3.91 ± 0.25 | 3.93 ± 0.3 | – | –
74 | FFKGIDQDIERGVQSEIFLHESYC [LYSMD4] | 2.58 ± 0.27 | 2.35 ± 0.19 | – | –
75 | ETLSITNCRLSEGDVMHLSQSPSV [PRAME] | 3.2 ± 0.66 | 3.22 ± 0.77 | – | –
76 | AHRERNEFPEDPEFEAVVRQAELA [PI4K2A] | 5.32 ± 0.12 | 5.36 ± 0.43 | – | –
77 | HILAKNYFSQVPVLASFILDDGEI [IQUB] | 2.2 ± 0.51 | 1.96 ± 0.42 | – | –
78 | SIEYDSEPFGKERDAAIKKLATEA [CRY1] | 5.18 ± 0.14 | 4.87 ± 0.7 | – | –
79 | CPVPAHRRGSWRLPYTDGLSWELL [CTBP1-DT] | 2.49 ± 0.34 | 2.59 ± 0.31 | – | –
80 | GLDGYRGYSLADWVCLAYFTSGFN [SPACA3] | 3.1 ± 1.2 | 2.81 ± 0.7 | – | –
81 | GSEMGLSSHLQSSKAGPTRIFTSN [KLHL13] | 3.78 ± 0.17 | 3.77 ± 0.23 | – | –
82 | VVCRQLGLGFASNAFQETWYWHGD [LOXL2] | 2.55 ± 0.55 | 2.42 ± 0.31 | – | –
83 | NSMAPHPARDYVVLRTWRTNLPKG [DLC1] | 2.48 ± 0.59 | 2.64 ± 0.21 | – | –
84 | TITIGMFPAVTVEVKSSIAGSSTW [SLC29A1] | 2.58 ± 0.6 | 2.4 ± 0.5 | – | –
85 | EYVEKETQEKKRLSRTNEELLWKL [MTUS2] | 4.04 ± 0.25 | 4.17 ± 0.22 | – | –
86 | FDQLKQFLTFDKQVLRFYAIWDDT [EFHC1] | 2.31 ± 0.2 | 2.13 ± 0.33 | – | –
87 | LILSIIFIEGYCTPEEVIWEALNM [MAGEA10] | 3.32 ± 0.44 | 3.21 ± 0.79 | – | –
88 | DAPVPDCLGVHCDFHQGLLSFYNA [FSD1] | 2.41 ± 0.094 | 2.52 ± 0.26 | – | –
89 | LGSVQFMEQFCWPHLRSFCETCVG | 2.39 ± 0.29 | 2.21 ± 0.41 | – | –

Reference: the supplement of paper PMC10567573
